Values quoted from earlier work, collected in article PMC4958339.
pKd: −log10 of the molar value.

Tests used:
Pins/LGN = Pins/LGN (UniProt Q8VDU0)
Lgl = Lgl (UniProt P08111)
Chain of UniProt P08111 (P08111 648-670): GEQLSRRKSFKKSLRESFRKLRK

Chain of UniProt Q8VDU0 (Q8VDU0 392-414): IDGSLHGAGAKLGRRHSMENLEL

- pKd (Pins/LGN): 6.48
- pKd (Lgl): 4.99
Substance: Dlg GUK (from UniProt Q12959)
